Results taken from patent US8093037B2, “Engineered microorganisms with enhanced fermentation activity” (Verdezyne, Inc., priority 2009, dated 2012).
“And” between values parts separate entries of the source, which are not always exact repeats. Equal entries are not always repeated.

B1: XI-R: native xylose isomerase of Ruminococcus flavefaciens strain 17, SEQ ID NO: 31 (protein, listed as Ruminococcus flavefaciens)
chain: MEFFSNIGKIQYQGPKSTDPLSFKYYNPEEVINGKTMREHLKFALSWWHTMGGDGTDMFGCGTTDKTWGQSDPAARAKAKVDAAFEIMDKLSIDYYCFHDRDLSPEYGSLKATNDQLDIVTDYIKEKQGDKFKCLWGTAKCFDHPRFMHGAGTSPSADVFAFSAAQIKKALESTVKLGGNGYVFWGGREGYETLLNTNMGLELDNMARLMKMAVEYGRSIGFKGDFYIEPKPKEPTKHQYDFDTATVLGFLRKYGLDKDFKMNIEANHATLAQHTFQHELRVARDNGVFGSIDANQGDVLLGWDTDQFPTNIYDTTMCMYEVIKAGGFTNGGLNFDAKARRGSFTPEDIFYSYIAGMDAFALGFRAALKLIEDGRIDKFVADRYASWNTGIGADIIAGKADFASLEKYALEKGEVTASLSSGRQEMLESIVNNVLFSL

Key:
xylose isomerase = assay: Xylose isomerase assay in the presence of xylitol (inhibition constant); format: biochemical; settings: chimeric variants table; inhibitor xylitol
Protocol: Approximately 20 μg of soluble whole cell extract from each transformed cell line, prepared using Y-PER plus reagent as described above, was incubated in a solution containing about 100 mM Tris, pH 7.5, 10 mM MgCl ? 2, 0.15 mM NADH (Sigma, St. Louis, Mo.), and 2 U Sorbitol Dehydrogenase (SDH) (Roche, Indianapolis, Ind.) at about 30° C. […] A Beckman DU-800 spectrophotometer was utilized with an Enzyme Mechanism software package (Beckman Coulter, Inc, Brea, Calif.), and the change in the A340 was monitored for 2-3 minutes.

[1] = Heterologous xylose isomerase expression in yeast (active yes/no); format: cell-based, Saccharomyces cerevisiae; settings: xylose isomerase of donor organism expressed in engineered yeast (S. cerevisiae)
[2] = Xylose isomerase activity assay (sorbitol dehydrogenase/NADH coupled, Kuyper et al.), soluble whole cell extract; format: biochemical, Saccharomyces cerevisiae
[3] = test system: Saccharomyces cerevisiae (strain BF903); assay: Industrial yeast strain evaluation: aerobic growth and xylose consumption in YP-xylose; format: cell-based; settings: 30° C., 7 days
Protocol: A commercially available industrial diploid strain of Saccharomyces cerevisiae (strain BF903; “Stillspirits” triple distilled yeast, Brewcraft, Albany, New Zealand; available at Hydrobrew, Oceanside, Calif.) was obtained and was made competent for transformation using known yeast cell transformation procedures. […] Transformed yeast containing each construct were grown overnight aerobically in a 15 ml culture tube on YPD media containing 2% glucose. After about 24 hours, about 25 ml of YP media containing 2% glucose and 100 μg/ml G418 was seeded with the cells at an initial OD600 of 0.5 in a 250 ml Erlenmeyer flask and grown aerobically at 30° C. The cultures were then passaged once every 7 days into fresh media, also at an initial OD600 of 0.5.
Measurements were taken of the cell optical density (OD600) to assess cell density and plated onto YPD with 100 μg/ml G418 to ensure that the plasmid was stable. […] The strains were then grown overnight in YPD (with 100 μg/ml G418) and used to inoculate about 50 ml YP-xylose (with 100 μg/ml G418) into disposable 250 ml Erlenmeyer flasks with vented caps at an initial OD600 of about 1. The cultures were allowed to grow aerobically at 30° C. at 200 rpm for 7 days.

C5 strain = assay: Xylose fermentation of C5 strain transformed with xylose isomerase constructs; format: cell-based, Saccharomyces cerevisiae
Source text: The engineered strain was designed to include the following genetic modifications: the native Pho13 gene (alkaline phosphatase specific for p-nitrophenyl phosphate) was disrupted by inserting a construct containing the native TLK1 gene (Transketolase-1); the native aldose reductase gene (Gre3) was disrupted by inserting a construct containing the native high-affinity glucose transporter-7 gene (HXT7); the native glucose-repressible alcohol dehydrogenase II gene (adh2) was disrupted by inserting a construct containing the native xylulokinase gene (XYLK); and the native orotidine-5′ phosphate decarboxylase gene (ura3) was disrupted by inserting a construct containing the native transaldolase 1 gene (TAL1). The resulting strain had the following genotype: pho13::TKL1, gre3::HXT7, adh-2::XYLK, ura3::TAL1.
The C5 strain was transformed using standard protocols with either p426GPD (as a control) or the chimeric variants XI-R, XI-Rp5, XI-Rp10, or XI-Rp15. The transformed cells were grown on SC-glucose minus uracil initially and then passaged onto SC-xylose minus uracil. Cultures of each of the above constructs were made in SC-xylose minus uracil—and grown for one week. The cultures were grown aerobically at 30° C. with 250 rpm agitation, 1 vvm sparge of process air, 21% O2. The pH was controlled at about 5.0 with 1N NaOH. […] At 24 hours elapsed fermentation time the fermentation was switched to anaerobic conditions. […] Oxygen was purged with 100% N2 sparge at 1 vvm until percent O2 was below 1%. Aeration was then set at 0.25 vvm 100% N2.
The final sample also measured biomass by dry cell weight.

[4] = test system: Saccharomyces cerevisiae (strain BF903); assay: Industrial yeast strain evaluation: ethanol production on xylose in sealed serum bottles; format: cell-based; settings: strain BF903, YP plus xylose, sealed serum bottle
Protocol: The serum bottles were sealed with a butyl rubber stopper to prevent air exchange. As a result, the cultures became anaerobic once the available oxygen in the serum bottle was utilized. In general, anaerobiosis (e.g., the onset of anaerobic conditions) occurred a few hours after the culture was inoculated. Xylose utilization, ethanol production and cell growth were measured every twenty four hours.

Molecule | Ki (xylose isomerase) | Active? (yes/no) [1] | Specific Activity ([2]; chimeric variants table, xylose 40-500 mM, soluble whole cell extract) | xylose consumption [3] | Dry Cell Wt (C5 strain; final sample at 372 hours) | Ethanol (C5 strain; final sample at 372 hours) | Glucose (C5 strain; final sample at 372 hours) | Xylose (C5 strain; final sample at 372 hours) | OD600 nm (C5 strain; final sample at 372 hours after commencing fermentation) | cell growth (cell density) [4] | ethanol production [4] | Specific Activity ([2]; xylose isomerase expressed in S. cerevisiae, total soluble crude extract, xylose concentrations between 40 and 500 nM (so in the source), Michaelis-Menten plot)
XI-P: xylose isomerase from Piromyces strain E2, SEQ ID NO: 35 | 4.79 mM | Yes | 2.02 µmol/min/mg |  |  |  |  |  |  |  |  | 
B1 |  | Yes |  | more efficient at consuming xylose | 2.20 g/L and 2.03 g/L | 15.65 g/L and 15.5 g/L | 0 g/L | 3.14 g/L and 3.85 g/L | 7.72 and 7.32 | grew to a higher cell density | produced more ethanol | 0.9605 µmol/min/mg
